In publication PMC10786891, “Massively parallel profiling of RNA-targeting CRISPR-Cas13d”:
Substitutions are numbered along the chain they refer to. Numbers in names are those of the source.

Target: T1, EsCas13d, nuclease-dead (Eubacterium siraeum, UniProt B0MS50, R295A;H300A;R849A;H854A)
T1 sequence: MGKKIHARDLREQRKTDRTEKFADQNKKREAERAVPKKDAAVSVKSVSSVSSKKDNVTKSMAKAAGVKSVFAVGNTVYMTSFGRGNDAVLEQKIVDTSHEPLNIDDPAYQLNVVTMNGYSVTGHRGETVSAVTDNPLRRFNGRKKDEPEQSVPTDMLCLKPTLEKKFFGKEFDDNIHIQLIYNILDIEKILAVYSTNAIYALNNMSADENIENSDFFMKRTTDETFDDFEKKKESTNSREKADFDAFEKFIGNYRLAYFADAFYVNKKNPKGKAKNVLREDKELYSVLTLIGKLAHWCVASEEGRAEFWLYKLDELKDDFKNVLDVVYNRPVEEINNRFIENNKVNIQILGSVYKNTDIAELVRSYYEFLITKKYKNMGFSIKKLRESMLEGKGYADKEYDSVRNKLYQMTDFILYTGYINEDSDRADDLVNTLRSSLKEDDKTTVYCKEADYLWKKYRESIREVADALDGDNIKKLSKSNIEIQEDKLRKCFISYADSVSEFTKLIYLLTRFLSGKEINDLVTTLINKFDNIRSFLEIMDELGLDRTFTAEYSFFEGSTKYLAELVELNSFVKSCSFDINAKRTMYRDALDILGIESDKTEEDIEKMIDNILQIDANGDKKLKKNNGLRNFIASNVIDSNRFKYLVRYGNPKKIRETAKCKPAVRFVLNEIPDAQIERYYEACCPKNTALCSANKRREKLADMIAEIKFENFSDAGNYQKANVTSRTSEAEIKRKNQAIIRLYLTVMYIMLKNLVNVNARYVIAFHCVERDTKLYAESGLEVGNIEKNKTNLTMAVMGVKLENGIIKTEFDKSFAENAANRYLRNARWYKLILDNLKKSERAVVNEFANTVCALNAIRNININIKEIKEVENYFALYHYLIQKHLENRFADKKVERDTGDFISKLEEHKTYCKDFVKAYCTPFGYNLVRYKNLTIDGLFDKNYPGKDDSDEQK
Assay: crRNA (strand 1, pre-loaded); Mg2+; 40 mM Tris-HCl pH 7.5, 150 mM NaCl, 6 mM MgCl2, 1 mM DTT, 0.1% Tween-20, 0.2 mg/ml BSA; 25 C; 10 min per concentration, then washed
Conditions: tags: His6-TwinStrep-SUMO cleaved; N-terminal SNAP kept (SNAP-Surface 488); label: 3' end held by stalled T7 RNA polymerase

B1: target 1 C7U,A20C (mixed)
RNA 1: CACCCGUGCAAAAAUGCAGGGGUCUAAAACUGAGCGGAUAACCUCUCUAUGG
RNA 2: GGGAAUGGAUCCACAUCUACGAAUUCGUACCCUAGAGAGGUUAUUCGCUCACCGAGAUCGGAAGAGCACACGU
- Kd: 37 ± 8 nM

B2: target 1 del7,del15 (mixed)
RNA 1: B1 RNA 1
RNA 2: GGGAAUGGAUCCACAUCUACGAAUUCGUACCAUAGAAGGUUAUCGCUCACCGAGAUCGGAAGAGCACACGU
- Kd: 17.3 ± 0.7 nM

B3: target 1 A18U,A20U (mixed)
RNA 1: B1 RNA 1
RNA 2: B1 RNA 2 with C32U, A34U, U45C
- Kd: 95 ± 17 nM

B4: target 1 insU 3' of 6,insU 3' of 5 (mixed)
RNA 1: B1 RNA 1
RNA 2: GGGAAUGGAUCCACAUCUACGAAUUCGUACCAUAGAGAGGUUAUCCUGUCUCACCGAGAUCGGAAGAGCACACGU
- Kd: 14.3 ± 0.6 nM

B5: target 1 insC 3' of 19,insU 3' of 7 (mixed)
RNA 1: B1 RNA 1
RNA 2: GGGAAUGGAUCCACAUCUACGAAUUCGUACCAUCAGAGAGGUUAUCUCGCUCACCGAGAUCGGAAGAGCACACGU
- Kd: 62 ± 7 nM

B6: target 1 C6A,A16C (mixed)
RNA 1: B1 RNA 1
RNA 2: B1 RNA 2 with C32A, A36C, U45C, C46A
- Kd: 35.4 ± 2.2 nM

B7: target 1 insU 3' of 17,insU 3' of 4 (mixed)
RNA 1: B1 RNA 1
RNA 2: B5 RNA 2 with C34A, A35G, G36U, U47C, C48G, G49C, C50U
- Kd: 19.2 ± 2.1 nM

B8: target 1 insA 3' of 22,insU 3' of 14 (mixed)
RNA 1: B1 RNA 1
RNA 2: GGGAAUGGAUCCACAUCUACGAAUUCGUACACAUAGAGAUGGUUAUCCGCUCACCGAGAUCGGAAGAGCACACGU
- Kd: 41 ± 20 nM

B9: target 1 insU 3' of 14,insU 3' of 14 (mixed)
RNA 1: B1 RNA 1
RNA 2: B8 RNA 2 with A31C, C32A, A33U, U34A, A35G, G36A, A37G, G38A, A39U
- Kd: 21 ± 1.3 nM

B10: target 1 insA 3' of 17,insU 3' of 12 (mixed)
RNA 1: B1 RNA 1
RNA 2: B5 RNA 2 with C34A, A35G, G36A, A44U, U45A, C46U, U47C
- Kd: 10.4 ± 0.6 nM

B11: target 1 G5C,G12C (mixed)
RNA 1: B1 RNA 1
RNA 2: B1 RNA 2 with C32A, G40C, U45C, G47C
- Kd: 30.4 ± 1.8 nM

B12: target 1 insA 3' of 15,insG 3' of 8 (mixed)
RNA 1: B1 RNA 1
RNA 2: B5 RNA 2 with C34A, A35G, G36A, A37G, G38A, C46G, U47C
- Kd: 7.9 ± 0.4 nM

B13: target 1 G12U,C21A (mixed)
RNA 1: B1 RNA 1
RNA 2: B1 RNA 2 with C31A, C32A, G40U, U45C
- Kd: 27.4 ± 2.3 nM

B14: target 1 insC 3' of 12,insG 3' of 7 (mixed)
RNA 1: B1 RNA 1
RNA 2: B4 RNA 2 with U41C, A43U, U44A, C45U, U47G, G48C, U49G
- Kd: 16.2 ± 0.9 nM

B15: target 1 C2G,A20C (mixed)
RNA 1: B1 RNA 1
RNA 2: B1 RNA 2 with U45C, C50G
- Kd: 21.8 ± 1.1 nM

B16: target 1 insC 3' of 15,insG 3' of 10 (mixed)
RNA 1: B1 RNA 1
RNA 2: B5 RNA 2 with C34A, A35G, G36A, A37G, G38C, A44G, U45A, C46U, U47C
- Kd: 24.6 ± 1.8 nM

B17: target 1 U19G,C21A (mixed)
RNA 1: B1 RNA 1
RNA 2: B1 RNA 2 with C31A, C32A, U33G, U45C
- Kd: 56 ± 7 nM

B18: target 1 complement block 5-7 (mixed)
RNA 1: B1 RNA 1
RNA 2: B1 RNA 2 with C32A, U45G, C46G, G47C
- Kd: 32.9 ± 1.5 nM

B19: target 1 C2U,G17A (mixed)
RNA 1: B1 RNA 1
RNA 2: B1 RNA 2 with C32A, G35A, U45C, C50U
- Kd: 34.4 ± 2.7 nM

B20: target 1 insC 3' of 17,insU 3' of 15 (mixed)
RNA 1: B1 RNA 1
RNA 2: B8 RNA 2 with A31C, C32A, A33U, U34A, A35G, G36C, A39U, U40A
- Kd: 19.1 ± 1 nM

B21: target 1 C4G,A14C (mixed)
RNA 1: B1 RNA 1
RNA 2: B1 RNA 2 with C32A, A38C, U45C, C48G
- Kd: 14.1 ± 2.8 nM

B22: target 1 complement block 18-20 (mixed)
RNA 1: B1 RNA 1
RNA 2: B1 RNA 2 with C32U, U33A, A34U, U45C
- Kd: 57 ± 7 nM

B23: target 1 insC 3' of 19,insU 3' of 4 (mixed)
RNA 1: B1 RNA 1
RNA 2: B5 RNA 2 with U47C, C48G, G49C, C50U
- Kd: 32.2 ± 3.2 nM

B24: target 1 insU 3' of 4,insG 3' of 2 (mixed)
RNA 1: B1 RNA 1
RNA 2: B4 RNA 2 with U47G, G48C, C50U, U51C, C52G
- Kd: 7.4 ± 0.5 nM

B25: target 1 C2U,G13C (mixed)
RNA 1: B1 RNA 1
RNA 2: B1 RNA 2 with C32A, G39C, U45C, C50U
- Kd: 44 ± 7 nM

B26: target 1 G5A,U10C (mixed)
RNA 1: B1 RNA 1
RNA 2: B1 RNA 2 with C32A, U42C, U45C, G47A
- Kd: 47 ± 5 nM

B27: target 1 C4G,U11G (mixed)
RNA 1: B1 RNA 1
RNA 2: B1 RNA 2 with C32A, U41G, U45C, C48G
- Kd: 5.73 ± 0.29 nM

B28: target 1 insA 3' of 17,insG 3' of 9 (mixed)
RNA 1: B1 RNA 1
RNA 2: B5 RNA 2 with C34A, A35G, G36A, U45G, C46U, U47C
- Kd: 22.2 ± 2.5 nM

B29: target 1 insU 3' of 13,insG 3' of 9 (mixed)
RNA 1: B1 RNA 1
RNA 2: B4 RNA 2 with G40U, U41G, A43U, U44A, C45G, C46U, U47C, G48C, U49G
- Kd: 24.8 ± 3.2 nM

B30: target 1 del14 (mixed)
RNA 1: B1 RNA 1
RNA 2: GGGAAUGGAUCCACAUCUACGAAUUCGUACCAUAGAGGGUUAUCCGCUCACCGAGAUCGGAAGAGCACACGU
- Kd: 12.1 ± 0.9 nM

B31: target 1 insA 3' of 8,insA 3' of 5 (mixed)
RNA 1: B1 RNA 1
RNA 2: B4 RNA 2 with C45A, U47C, U49A
- Kd: 18.8 ± 1.5 nM

B32: target 1 insA 3' of 19,insG 3' of 7 (mixed)
RNA 1: B1 RNA 1
RNA 2: B5 RNA 2 with C34A, U47G
- Kd: 16.3 ± 1.4 nM

B33: target 1 U11A,G17C (mixed)
RNA 1: B1 RNA 1
RNA 2: B1 RNA 2 with C32A, G35C, U41A, U45C
- Kd: ~70 nM

B34: target 1 insU 3' of 13,insG 3' of 11 (mixed)
RNA 1: B1 RNA 1
RNA 2: B4 RNA 2 with G40U, U41G, A43G, C45A, C46U, U47C, G48C, U49G
- Kd: 39 ± 8 nM
